Key:
[1] = target: purified full length LFA-1 (lymphocyte function–associated antigen 1) (human (endogenous in JY)) (UniProt P20701); experiment: adhesion in a parallel plate flow cell
[2] = target: GPI-anchored form of the LFA-1 I domain (I-GPI), stably expressed on baby hamster kidney cells (UniProt P20701); experiment: radioligand binding

Sequence of UniProt P20701 (P20701 26-1170, chain 1 of 2): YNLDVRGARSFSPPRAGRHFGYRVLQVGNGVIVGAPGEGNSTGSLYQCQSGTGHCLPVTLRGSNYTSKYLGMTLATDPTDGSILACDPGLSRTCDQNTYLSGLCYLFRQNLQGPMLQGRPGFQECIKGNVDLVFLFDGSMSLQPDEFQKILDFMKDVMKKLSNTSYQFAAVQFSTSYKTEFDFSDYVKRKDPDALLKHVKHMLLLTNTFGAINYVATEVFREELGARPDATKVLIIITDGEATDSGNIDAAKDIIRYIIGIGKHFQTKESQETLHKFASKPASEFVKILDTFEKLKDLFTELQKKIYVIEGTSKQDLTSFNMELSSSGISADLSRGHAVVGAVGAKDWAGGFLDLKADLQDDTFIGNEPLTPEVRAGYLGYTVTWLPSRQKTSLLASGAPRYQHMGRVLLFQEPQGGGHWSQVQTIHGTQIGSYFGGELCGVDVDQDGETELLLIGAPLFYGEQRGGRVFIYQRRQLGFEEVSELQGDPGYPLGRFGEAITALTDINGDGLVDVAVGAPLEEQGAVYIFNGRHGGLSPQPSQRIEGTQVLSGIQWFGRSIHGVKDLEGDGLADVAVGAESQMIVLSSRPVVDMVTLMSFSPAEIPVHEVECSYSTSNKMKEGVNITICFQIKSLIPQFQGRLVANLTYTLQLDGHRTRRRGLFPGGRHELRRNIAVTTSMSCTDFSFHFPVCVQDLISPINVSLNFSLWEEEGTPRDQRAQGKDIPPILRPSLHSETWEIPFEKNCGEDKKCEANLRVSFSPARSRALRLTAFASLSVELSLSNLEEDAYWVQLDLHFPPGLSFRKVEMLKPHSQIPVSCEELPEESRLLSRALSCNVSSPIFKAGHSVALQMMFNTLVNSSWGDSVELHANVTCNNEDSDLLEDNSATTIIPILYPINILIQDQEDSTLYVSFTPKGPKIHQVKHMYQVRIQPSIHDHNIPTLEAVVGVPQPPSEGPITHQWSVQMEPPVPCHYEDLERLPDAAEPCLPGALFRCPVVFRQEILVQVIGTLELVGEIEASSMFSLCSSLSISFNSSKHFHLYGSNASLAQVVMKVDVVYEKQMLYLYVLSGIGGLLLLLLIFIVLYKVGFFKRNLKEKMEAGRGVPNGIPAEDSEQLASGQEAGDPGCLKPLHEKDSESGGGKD
Sequence of UniProt P20701 (P05107 23-769, chain 2 of 2, further chain): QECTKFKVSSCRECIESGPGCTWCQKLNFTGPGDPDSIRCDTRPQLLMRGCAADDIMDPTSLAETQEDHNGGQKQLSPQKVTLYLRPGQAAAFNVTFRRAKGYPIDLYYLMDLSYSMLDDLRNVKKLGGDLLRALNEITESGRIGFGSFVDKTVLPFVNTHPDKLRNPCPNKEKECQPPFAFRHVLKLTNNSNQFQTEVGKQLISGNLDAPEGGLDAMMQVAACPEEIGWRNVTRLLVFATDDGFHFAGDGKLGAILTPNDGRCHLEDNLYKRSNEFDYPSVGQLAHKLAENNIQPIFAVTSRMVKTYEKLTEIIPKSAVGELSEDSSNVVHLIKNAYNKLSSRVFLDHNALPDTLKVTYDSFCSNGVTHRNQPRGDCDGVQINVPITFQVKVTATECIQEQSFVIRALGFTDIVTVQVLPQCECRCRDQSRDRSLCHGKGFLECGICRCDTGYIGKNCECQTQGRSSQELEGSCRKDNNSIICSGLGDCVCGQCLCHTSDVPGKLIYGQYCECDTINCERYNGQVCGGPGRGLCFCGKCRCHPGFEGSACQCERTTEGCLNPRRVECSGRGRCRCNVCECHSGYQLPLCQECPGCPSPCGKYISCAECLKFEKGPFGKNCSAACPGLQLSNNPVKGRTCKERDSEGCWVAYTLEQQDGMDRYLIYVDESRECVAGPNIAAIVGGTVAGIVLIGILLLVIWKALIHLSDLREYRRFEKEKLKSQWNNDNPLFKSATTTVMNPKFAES

percent cells free [1]	percent cells rolling [1]	percent cells stable [1]	IC50 [2]	Substance
73%	0%	26%	–	ICAM-1 GPI on transfected baby hamster kidney cells (domain or fragment)
–	–	–	150 µM	soluble ICAM-1 (sICAM-1) (domain or fragment)

— publication PMC2199009
